This note sets out measurements from paper PMC12052844 (iScience, 2025).

Assay [1] has as its target EphA4 receptor on cells (UniProt Q03137). Kind of assay: flow cytometry on cells.
Assay [2] deals with T1, full-length wild-type EphB2 on the surface of Expi293F cells (mouse, UniProt P54763-3).
T1 sequence: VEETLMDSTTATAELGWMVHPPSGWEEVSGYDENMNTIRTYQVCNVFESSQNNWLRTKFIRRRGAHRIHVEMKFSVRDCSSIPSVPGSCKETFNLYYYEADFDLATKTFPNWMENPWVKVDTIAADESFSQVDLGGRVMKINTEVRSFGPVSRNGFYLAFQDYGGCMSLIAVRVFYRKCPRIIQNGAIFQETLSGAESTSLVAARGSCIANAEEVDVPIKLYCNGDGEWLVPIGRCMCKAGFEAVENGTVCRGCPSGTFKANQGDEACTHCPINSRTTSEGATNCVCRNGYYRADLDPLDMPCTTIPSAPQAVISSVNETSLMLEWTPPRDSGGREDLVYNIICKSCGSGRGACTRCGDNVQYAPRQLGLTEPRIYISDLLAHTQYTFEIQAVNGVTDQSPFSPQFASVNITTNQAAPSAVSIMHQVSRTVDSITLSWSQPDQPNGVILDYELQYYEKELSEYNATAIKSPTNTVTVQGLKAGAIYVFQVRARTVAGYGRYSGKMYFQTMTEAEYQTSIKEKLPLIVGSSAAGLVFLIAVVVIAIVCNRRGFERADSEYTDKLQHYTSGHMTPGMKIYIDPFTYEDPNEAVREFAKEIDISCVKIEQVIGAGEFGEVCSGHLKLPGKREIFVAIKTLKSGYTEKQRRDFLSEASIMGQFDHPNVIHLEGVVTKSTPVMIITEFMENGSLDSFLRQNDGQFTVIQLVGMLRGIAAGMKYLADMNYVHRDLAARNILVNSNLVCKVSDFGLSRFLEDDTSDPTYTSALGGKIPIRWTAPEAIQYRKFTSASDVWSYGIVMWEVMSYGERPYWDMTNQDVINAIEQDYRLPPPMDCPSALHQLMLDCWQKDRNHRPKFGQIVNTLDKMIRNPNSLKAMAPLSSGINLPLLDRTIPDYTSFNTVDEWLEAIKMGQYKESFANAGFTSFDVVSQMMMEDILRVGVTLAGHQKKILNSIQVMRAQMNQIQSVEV
Kind of assay: flow cytometry on cells.

Sequence of EphA4 receptor on cells (Q03137 20-986): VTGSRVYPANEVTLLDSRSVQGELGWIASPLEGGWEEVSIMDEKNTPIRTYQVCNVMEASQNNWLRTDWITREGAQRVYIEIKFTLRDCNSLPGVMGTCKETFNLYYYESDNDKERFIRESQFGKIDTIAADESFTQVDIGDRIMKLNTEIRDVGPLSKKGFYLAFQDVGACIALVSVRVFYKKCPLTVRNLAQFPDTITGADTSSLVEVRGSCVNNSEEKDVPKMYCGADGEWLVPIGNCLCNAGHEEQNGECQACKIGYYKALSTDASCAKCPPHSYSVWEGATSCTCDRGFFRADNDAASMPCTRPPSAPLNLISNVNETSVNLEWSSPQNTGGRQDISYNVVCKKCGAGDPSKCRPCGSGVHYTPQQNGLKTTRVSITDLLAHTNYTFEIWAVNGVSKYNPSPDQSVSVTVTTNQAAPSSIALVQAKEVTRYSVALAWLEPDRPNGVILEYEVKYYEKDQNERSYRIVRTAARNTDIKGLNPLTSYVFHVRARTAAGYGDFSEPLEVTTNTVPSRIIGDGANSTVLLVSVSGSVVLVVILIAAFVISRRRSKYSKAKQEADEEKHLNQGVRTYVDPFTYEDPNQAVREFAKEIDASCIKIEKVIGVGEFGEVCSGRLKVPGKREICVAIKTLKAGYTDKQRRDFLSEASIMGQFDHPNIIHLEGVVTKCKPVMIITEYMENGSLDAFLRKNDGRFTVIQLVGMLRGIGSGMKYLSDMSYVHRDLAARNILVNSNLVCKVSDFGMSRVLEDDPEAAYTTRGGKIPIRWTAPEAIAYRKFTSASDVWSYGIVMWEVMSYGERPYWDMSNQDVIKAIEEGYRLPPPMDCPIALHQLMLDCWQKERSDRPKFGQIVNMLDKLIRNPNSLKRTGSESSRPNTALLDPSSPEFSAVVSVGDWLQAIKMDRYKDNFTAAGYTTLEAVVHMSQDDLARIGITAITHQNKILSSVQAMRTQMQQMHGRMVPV

In assay [1], “pre-clustered ephrin-B2 (receptor binding domain of murine ephrin-B2, residues 30-170, biotinylated) (from UniProt P52800 30-170) (ligand)” showed a Kd of 501 nM.

B1: pre-clustered ephrin-A5 (receptor binding domain of murine ephrin-A5, residues 28-164, biotinylated) (ligand)
chain: VADRYAVYWNSSNPRFQRGDYHIDVCINDYLDVFCPHYEDSVPEDKTERYVLYMVNFDGYSACDHTSKGFKRWECNRPHSPNGPLKFSEKFQLFTPFSLGFEFRPGREYFYISSAIPDNGRRSCLKLKVFVRPTNSC
modifications: biotin on the Avi tag (BirA)
For the molecule B1, the affinity in assay [2], expressed as Kd, was 112 nM.

B2: pre-clustered ephrin-B2 (receptor binding domain of murine ephrin-B2, residues 30-170, biotinylated) (ligand)
chain: SIVLEPIYWNSSNSKFLPGQGLVLYPQIGDKLDIICPKVDSKTVGQYEYYKVYMVDKDQADRCTIKKENTPLLNCARPDQDVKFTIKFQEFSPNLWGLEFQKNKDYYIISTSNGSLEGLDNQEGGVCQTRAMKILMKVGQD
modifications: biotin on the Avi tag (BirA)
Regarding B2, the affinity in assay [2], expressed as Kd, was 3.53 nM.

B3: ephrin-B1 (ligand)
chain: ATPLAKNLEPVSWSSLNPKFLSGKGLVIYPKIGDKLDIICPRAEAGRPYEYYKLYLVRPEQAAACSTVLDPNVLVTCNKPHQEIRFTIKFQEFSPNYMGLEFKKYHDYYITSTSNGSLEGLENREGGVCRTRTMKIVMKVGQDPNAVTPEQLTTSRPSKESDNTVKTATQAPGRGSQGDSDGKHETVNQEEKSGPGAGGGGSGDSDSFFNSK
B3 registered a Kd in assay [2] of 6.64 nM.
